Data published in patent US8242083B2, “Kinase substrates” (PerkinElmer Health Sciences, Inc., priority 2008, dated 2012).

Experiments:
Assay type in all cases: biochemical
[1] = biological target: FER (Homo sapiens, UniProt P16591); assay: TR-FRET kinase assay, FER; details: Kinase Concentration 0.25 nM; 50 nM ULight-labeled substrate, 200 micromolar ATP, 2 hours
Method: (§1) TR-FRET kinase assays are performed under standardized conditions: various individual kinases are incubated with 50 nM of kinase substrate BRB1 labeled with the TR-FRET acceptor dye ULight (PerkinElmer) and 200 micromolar ATP in 10 μL of kinase assay buffer (50 mM HEPES pH7.5, 10 mM MgCl2, 3 mM MnCl2, 1 mM EGTA, 2 mM DTT and 0.01% Tween-20) for 2 hours at room temperature. Reactions are stopped with EDTA, and anti-phospho-tyrosine antibodies (clone PT66) labeled with the TR-FRET europium chelate donor dye are added to a final concentration of 2 nM in a final volume of 20 μL. The TR-FRET signal emitted at 665 nm is read one hour after the addition of antibodies using a TR-FRET plate reader such as the Envision® Multilabel Plate reader (PerkinElmer). The emitted signal at 665 nm is proportional to the extent of peptide phosphorylation, Control reactions indicative of background are performed excluding ATP from the reaction.
(§2) Assay conditions are identical to those used described for FIG. 1.

[2] = biological target: EphA7 (Homo sapiens, UniProt Q15375); assay: TR-FRET kinase assay, EphA7; details: Kinase Concentration 0.5 nM; 50 nM ULight-labeled substrate, 200 micromolar ATP, 2 hours
EphA7, sequence (Q15375 28-998, species assumed): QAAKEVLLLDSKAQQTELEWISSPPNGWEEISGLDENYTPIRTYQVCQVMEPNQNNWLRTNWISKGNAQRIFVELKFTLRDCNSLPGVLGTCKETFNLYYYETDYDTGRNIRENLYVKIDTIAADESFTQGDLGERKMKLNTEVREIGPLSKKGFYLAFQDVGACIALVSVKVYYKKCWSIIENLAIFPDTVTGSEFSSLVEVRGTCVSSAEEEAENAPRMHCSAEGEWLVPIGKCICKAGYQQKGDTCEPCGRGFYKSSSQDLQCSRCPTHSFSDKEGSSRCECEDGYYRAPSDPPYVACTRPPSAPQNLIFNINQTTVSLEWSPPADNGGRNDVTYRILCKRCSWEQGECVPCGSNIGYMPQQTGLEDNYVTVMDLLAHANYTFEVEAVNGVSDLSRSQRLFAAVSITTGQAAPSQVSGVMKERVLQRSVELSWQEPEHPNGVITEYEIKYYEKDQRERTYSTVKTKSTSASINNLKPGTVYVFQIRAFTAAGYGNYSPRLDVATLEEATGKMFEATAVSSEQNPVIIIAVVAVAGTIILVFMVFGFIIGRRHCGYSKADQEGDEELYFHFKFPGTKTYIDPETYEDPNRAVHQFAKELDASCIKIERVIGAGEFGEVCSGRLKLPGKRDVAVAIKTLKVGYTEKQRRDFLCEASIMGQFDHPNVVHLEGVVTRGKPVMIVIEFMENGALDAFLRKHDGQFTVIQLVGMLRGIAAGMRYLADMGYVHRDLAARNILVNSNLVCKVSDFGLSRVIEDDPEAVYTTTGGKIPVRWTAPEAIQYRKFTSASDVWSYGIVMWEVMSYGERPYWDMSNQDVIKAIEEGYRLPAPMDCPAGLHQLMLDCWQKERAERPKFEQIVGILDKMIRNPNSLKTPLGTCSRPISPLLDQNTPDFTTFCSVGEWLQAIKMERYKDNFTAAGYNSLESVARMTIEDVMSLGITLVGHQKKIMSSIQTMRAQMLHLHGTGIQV
Method: as §1, §2

[3] = biological target: T1, EphB4 (Homo sapiens, UniProt P54760); assay: TR-FRET kinase assay, EphB4; details: Kinase Concentration 0.5 nM; 50 nM ULight-labeled substrate, 200 micromolar ATP, 2 hours
T1 sequence (P54760 16-987): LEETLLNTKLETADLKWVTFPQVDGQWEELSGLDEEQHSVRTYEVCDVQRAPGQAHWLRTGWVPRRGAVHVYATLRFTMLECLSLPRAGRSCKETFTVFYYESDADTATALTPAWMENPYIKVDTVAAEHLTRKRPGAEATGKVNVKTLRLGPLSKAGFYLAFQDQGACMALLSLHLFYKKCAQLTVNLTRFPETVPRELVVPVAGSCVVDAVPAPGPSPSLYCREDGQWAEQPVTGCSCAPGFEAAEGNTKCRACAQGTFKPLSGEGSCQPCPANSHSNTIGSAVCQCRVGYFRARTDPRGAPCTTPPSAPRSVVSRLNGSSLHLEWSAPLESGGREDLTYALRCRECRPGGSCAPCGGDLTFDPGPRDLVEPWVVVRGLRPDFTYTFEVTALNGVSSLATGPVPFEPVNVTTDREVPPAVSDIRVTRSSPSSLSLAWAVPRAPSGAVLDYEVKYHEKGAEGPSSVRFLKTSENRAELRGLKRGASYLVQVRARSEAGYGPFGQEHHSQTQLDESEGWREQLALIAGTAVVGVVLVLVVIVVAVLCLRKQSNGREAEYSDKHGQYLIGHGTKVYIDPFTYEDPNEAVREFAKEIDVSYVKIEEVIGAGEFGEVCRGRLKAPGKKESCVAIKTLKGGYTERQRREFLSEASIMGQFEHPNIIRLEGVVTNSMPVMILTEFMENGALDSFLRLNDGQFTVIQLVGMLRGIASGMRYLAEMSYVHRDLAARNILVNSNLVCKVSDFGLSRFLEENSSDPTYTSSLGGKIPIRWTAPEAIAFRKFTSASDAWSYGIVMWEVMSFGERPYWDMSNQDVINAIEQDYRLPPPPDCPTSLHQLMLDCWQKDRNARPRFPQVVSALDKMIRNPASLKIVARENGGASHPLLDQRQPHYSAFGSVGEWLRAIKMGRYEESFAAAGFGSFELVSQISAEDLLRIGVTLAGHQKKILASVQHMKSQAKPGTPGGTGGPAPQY
Method: as §1, §2

[4] = biological target: HER4 (ERBB4) (Homo sapiens, UniProt Q15303); assay: TR-FRET kinase assay, HER4 (ERBB4); details: Kinase Concentration 0.1 nM; 50 nM ULight-labeled substrate, 200 micromolar ATP, 2 hours
HER4 (ERBB4), sequence (Q15303 26-1308, species assumed): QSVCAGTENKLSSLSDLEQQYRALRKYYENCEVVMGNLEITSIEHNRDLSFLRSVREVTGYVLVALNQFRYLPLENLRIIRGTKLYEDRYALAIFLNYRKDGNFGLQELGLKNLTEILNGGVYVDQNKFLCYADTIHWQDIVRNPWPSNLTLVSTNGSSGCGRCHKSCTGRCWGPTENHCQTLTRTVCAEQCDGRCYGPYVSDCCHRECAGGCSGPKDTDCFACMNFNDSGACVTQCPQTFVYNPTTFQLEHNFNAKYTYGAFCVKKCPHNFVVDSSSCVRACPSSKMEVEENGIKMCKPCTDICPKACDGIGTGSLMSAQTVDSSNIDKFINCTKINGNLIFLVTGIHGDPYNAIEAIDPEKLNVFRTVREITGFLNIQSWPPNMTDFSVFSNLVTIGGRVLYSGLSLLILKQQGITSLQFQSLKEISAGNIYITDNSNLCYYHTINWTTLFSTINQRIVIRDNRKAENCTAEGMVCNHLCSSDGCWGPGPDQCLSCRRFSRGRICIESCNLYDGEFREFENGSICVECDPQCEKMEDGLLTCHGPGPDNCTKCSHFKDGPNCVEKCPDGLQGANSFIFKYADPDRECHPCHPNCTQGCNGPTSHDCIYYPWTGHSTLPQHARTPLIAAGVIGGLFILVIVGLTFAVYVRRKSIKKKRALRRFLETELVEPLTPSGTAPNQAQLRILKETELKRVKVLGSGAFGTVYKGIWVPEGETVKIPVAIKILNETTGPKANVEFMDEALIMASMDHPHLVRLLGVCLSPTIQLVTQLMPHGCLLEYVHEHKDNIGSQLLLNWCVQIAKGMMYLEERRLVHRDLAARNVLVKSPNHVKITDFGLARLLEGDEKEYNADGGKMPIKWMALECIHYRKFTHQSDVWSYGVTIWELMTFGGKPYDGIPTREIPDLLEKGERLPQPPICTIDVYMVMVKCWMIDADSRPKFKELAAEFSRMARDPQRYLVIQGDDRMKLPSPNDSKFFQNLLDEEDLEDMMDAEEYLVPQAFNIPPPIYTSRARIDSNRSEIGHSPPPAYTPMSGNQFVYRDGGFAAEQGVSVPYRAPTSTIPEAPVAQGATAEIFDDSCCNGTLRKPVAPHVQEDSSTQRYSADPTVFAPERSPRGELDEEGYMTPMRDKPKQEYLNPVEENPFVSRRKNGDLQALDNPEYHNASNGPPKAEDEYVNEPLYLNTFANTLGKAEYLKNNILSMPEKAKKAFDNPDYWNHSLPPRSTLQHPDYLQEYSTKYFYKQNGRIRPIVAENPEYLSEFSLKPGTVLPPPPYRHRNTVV
Method: as §1, §2

[5] = biological target: T2, MER (Homo sapiens, UniProt Q12866); assay: TR-FRET kinase assay, MER; details: Kinase Concentration 0.25 nM; 50 nM ULight-labeled substrate, 200 micromolar ATP, 2 hours
T2 sequence (Q12866 21-999): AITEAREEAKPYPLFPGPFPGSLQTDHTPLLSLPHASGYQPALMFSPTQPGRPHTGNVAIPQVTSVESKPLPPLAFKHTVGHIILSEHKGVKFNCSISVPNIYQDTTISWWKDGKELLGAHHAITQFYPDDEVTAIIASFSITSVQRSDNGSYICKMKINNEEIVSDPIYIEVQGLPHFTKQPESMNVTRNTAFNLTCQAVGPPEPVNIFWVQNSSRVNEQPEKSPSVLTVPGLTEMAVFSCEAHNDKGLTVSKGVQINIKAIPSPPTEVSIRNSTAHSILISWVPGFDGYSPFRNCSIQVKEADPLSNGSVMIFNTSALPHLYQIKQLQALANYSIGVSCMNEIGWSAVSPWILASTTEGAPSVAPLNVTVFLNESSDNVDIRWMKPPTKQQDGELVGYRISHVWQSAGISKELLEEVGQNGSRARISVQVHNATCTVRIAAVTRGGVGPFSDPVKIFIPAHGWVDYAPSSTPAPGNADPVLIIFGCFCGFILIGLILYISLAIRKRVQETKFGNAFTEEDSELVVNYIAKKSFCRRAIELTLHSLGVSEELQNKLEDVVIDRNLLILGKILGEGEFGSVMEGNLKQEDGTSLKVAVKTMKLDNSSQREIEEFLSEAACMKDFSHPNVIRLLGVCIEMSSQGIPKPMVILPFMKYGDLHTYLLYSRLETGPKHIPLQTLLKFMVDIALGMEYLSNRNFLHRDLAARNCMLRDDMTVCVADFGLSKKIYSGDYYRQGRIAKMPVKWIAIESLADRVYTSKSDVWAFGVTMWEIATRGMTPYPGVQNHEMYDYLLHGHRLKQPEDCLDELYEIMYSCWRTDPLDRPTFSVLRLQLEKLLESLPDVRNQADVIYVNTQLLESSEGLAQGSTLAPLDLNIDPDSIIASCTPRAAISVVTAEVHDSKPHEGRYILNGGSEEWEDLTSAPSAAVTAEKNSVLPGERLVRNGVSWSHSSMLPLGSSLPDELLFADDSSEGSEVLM
Method: as §1, §2

[6] = biological target: ROR1 (Homo sapiens, UniProt Q01973); assay: TR-FRET kinase assay, ROR1; details: Kinase Concentration 20 nM; 50 nM ULight-labeled substrate, 200 micromolar ATP, 2 hours
Method: as §1, §2

FER, sequence (P16591 whole entry, species assumed): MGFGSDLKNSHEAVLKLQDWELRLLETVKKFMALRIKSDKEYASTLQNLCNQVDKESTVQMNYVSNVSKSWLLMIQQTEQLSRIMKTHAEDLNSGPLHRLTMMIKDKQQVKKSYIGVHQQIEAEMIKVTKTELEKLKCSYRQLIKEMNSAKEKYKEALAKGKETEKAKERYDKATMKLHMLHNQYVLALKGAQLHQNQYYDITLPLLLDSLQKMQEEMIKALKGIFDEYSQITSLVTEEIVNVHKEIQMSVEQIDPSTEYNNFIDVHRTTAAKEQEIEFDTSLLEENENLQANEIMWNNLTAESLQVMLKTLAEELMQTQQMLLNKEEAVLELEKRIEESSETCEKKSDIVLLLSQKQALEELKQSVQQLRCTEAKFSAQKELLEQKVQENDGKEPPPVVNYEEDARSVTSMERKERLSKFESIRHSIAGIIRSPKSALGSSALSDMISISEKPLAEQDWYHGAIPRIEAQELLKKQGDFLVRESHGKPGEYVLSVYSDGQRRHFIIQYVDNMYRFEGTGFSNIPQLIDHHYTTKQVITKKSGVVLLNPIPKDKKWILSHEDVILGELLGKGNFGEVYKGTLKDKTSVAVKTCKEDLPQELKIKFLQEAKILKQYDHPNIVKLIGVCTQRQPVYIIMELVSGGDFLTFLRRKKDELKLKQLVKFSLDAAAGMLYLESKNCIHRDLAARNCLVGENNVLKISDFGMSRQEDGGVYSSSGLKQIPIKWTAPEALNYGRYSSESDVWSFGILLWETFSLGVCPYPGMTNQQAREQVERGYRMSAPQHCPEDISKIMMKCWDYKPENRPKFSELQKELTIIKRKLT

Sequence: C AYE AYE AYE K EYA EYA EYA K AYA EYE R (CAYEAYEAYEKEYAEYAEYAKAYAEYER; tyrosine kinase substrate peptide) [BRB1]
- Signal to Noise ratio with BRB1 Peptide [1]: 31.0
- Signal to Noise ratio with BRB1 Peptide [2]: 17.2
- Signal to Noise ratio with BRB1 Peptide [3]: 29.8
- Signal to Noise ratio with BRB1 Peptide [4]: 3.1
- Signal to Noise ratio with BRB1 Peptide [5]: 12.9
- Signal to Noise ratio with BRB1 Peptide [6]: 1.1
